According to PMC9860250:
Like-named read-outs stand apart in the source and are kept apart here.

How the values were obtained:
[1] = target: T1, Lsm2-8 heteroheptameric ring (UniProt P38203;P57743;P40070;P40089;Q06406;P53905;P47093 …); test: EMSA
T1 sequence 1: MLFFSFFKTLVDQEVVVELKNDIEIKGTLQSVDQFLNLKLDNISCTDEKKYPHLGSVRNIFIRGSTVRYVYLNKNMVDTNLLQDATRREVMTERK
T1 sequence 2: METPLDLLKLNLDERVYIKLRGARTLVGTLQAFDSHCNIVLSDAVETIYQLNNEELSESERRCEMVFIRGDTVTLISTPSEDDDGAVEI
T1 sequence 3: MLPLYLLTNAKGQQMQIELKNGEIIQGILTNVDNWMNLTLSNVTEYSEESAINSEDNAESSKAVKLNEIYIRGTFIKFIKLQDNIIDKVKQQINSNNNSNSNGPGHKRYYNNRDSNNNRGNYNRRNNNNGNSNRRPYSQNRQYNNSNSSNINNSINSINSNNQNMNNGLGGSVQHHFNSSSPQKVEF
T1 sequence 4: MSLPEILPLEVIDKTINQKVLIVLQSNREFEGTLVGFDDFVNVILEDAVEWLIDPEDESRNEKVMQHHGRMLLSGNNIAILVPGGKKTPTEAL
T1 sequence 5: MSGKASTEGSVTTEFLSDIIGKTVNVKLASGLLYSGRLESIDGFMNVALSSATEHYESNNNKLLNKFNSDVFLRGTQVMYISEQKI
T1 sequence 6: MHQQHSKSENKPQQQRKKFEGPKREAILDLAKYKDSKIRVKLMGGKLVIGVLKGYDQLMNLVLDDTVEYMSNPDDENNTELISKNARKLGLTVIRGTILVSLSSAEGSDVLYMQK
T1 sequence 7: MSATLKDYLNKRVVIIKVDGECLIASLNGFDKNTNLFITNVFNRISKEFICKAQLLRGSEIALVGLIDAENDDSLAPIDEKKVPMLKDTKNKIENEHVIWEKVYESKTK

[2] = target: T1, Lsm2-8 heteroheptameric ring; test: EMSA; remark: listed apart in the source

B1: U6_WT (ssRNA)
RNA: UACAAAGAGAUUUAUUUCGUUUU
modifications: 3'-phosphate
- binding result [1]: binds

B2: U6_WT/U2_WT helix II (dsRNA)
RNA 1: UACAAAGAGAUUUAUUUCGUUUU
RNA 2: ACGAAUCUCUUUGCCUUUUGGCUUAGAU
modifications: 3'-phosphate on U6
- binding result [2]: binds
